18 molecules from patent US11795460B2, “Compositions and methods for TTR gene editing and treating ATTR amyloidosis” (Intellia Therapeutics, Inc., priority 2017, dated 2023) can be followed below.

Strand notation (5' to 3'): a small letter for the sugar, then the base; units joined by * are phosphorothioate-linked, units joined directly phosphodiester-linked; [ ] holds rarer units or linkages, { } end groups; capitals alone tell only the bases. m = 2'-O-methyl; r = 2'-OH (RNA)

The subject of the data set is off-target genomic sites. The data set can be described thus: Off-target oligo insertion based assay in HEK293_Cas9 cells, dgRNAs and sgRNAs (Tables 23, 24). As to conditions: for # Sites (off-target integration sites detected): Table 24, TTR sgRNAs in HekCas9 cells, insertion detection method; for # Sites in HekCas9 cells (Example 5): Table 30, TTR sgRNAs, repeated from Example 5 for comparison. The format is cell-based, human. The gist of the method:
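In HEK293 cells constitutively expressing Spy Cas9, crRNA (15 nM) plus trRNA (15 nM), or modified sgRNAs, were lipofected with donor oligo (10 nM). Genomic DNA was collected at 24 h, and oligo-insertion libraries were sequenced on MiSeq/HiSeq to map potential off-target cleavage sites.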

B1: G000571: TTR sgRNA modified sequence, Human, SEQ ID No. 112; guide sequence of CR005301 (nucleic acid)
guide: mG*mU*mC*rArCrArGrArArArCrArCrUrCrArCrCrGrUrGrUrUrUrUrArGrAmGmCmUmAmGmAmAmAmUmAmGmCrArArGrUrUrArArArArUrArArGrGrCrUrArGrUrCrCrGrUrUrArUrCrAmAmCmUmUmGmAmAmAmAmAmGmUmGmGmCmAmCmCmGmAmGmUmCmGmGmUmGmCmU*mU*mU*mU
B1: the “# Sites (off-target integration sites detected)” value is 16 and the “# Sites in HekCas9 cells (Example 5)” value turned out to be 16.

B2: G000568: TTR sgRNA modified sequence, Human, SEQ ID No. 110; guide sequence of CR003391 (nucleic acid)
guide: mG*mG*mC*rUrGrUrCrGrUrCrArCrCrArArUrCrCrCrArGrUrUrUrUrArGrAmGmCmUmAmGmAmAmAmUmAmGmCrArArGrUrUrArArArArUrArArGrGrCrUrArGrUrCrCrGrUrUrArUrCrAmAmCmUmUmGmAmAmAmAmAmGmUmGmGmCmAmCmCmGmAmGmUmCmGmGmUmGmCmU*mU*mU*mU
B2: the “# Sites (off-target integration sites detected)” value amounted to 937 and the “# Sites in HekCas9 cells (Example 5)” value was determined as 936.

B3: G000485: TTR sgRNA modified sequence, Human, SEQ ID No. 92; guide sequence of CR003336 (nucleic acid)
guide: mC*mC*mU*rCrCrUrCrUrGrCrCrUrUrGrCrUrGrGrArCrGrUrUrUrUrArGrAmGmCmUmAmGmAmAmAmUmAmGmCrArArGrUrUrArArArArUrArArGrGrCrUrArGrUrCrCrGrUrUrArUrCrAmAmCmUmUmGmAmAmAmAmAmGmUmGmGmCmAmCmCmGmAmGmUmCmGmGmUmGmCmU*mU*mU*mU
With B3, the “# Sites (off-target integration sites detected)” value turned out to be 22 and the “# Sites in HekCas9 cells (Example 5)” value worked out at 22.

B4: G000567: TTR sgRNA modified sequence, Human, SEQ ID No. 109; guide sequence of CR003352 (nucleic acid)
guide: mG*mA*mA*rArGrGrCrUrGrCrUrGrArUrGrArCrArCrCrGrUrUrUrUrArGrAmGmCmUmAmGmAmAmAmUmAmGmCrArArGrUrUrArArArArUrArArGrGrCrUrArGrUrCrCrGrUrUrArUrCrAmAmCmUmUmGmAmAmAmAmAmGmUmGmGmCmAmCmCmGmAmGmUmCmGmGmUmGmCmU*mU*mU*mU
As for B4, the “# Sites (off-target integration sites detected)” value was found to be 9 and the “# Sites in HekCas9 cells (Example 5)” value is 9.

B5: G000495: TTR sgRNA modified sequence, Human, SEQ ID No. 102; guide sequence of CR003343 (nucleic acid)
guide: mC*mA*mG*rArGrGrArCrArCrUrUrGrGrArUrUrCrArCrGrUrUrUrUrArGrAmGmCmUmAmGmAmAmAmUmAmGmCrArArGrUrUrArArArArUrArArGrGrCrUrArGrUrCrCrGrUrUrArUrCrAmAmCmUmUmGmAmAmAmAmAmGmUmGmGmCmAmCmCmGmAmGmUmCmGmGmUmGmCmU*mU*mU*mU
As to B5, the “# Sites (off-target integration sites detected)” value stood at 13 and the “# Sites in HekCas9 cells (Example 5)” value is reported as 13.

B6: G000572: TTR sgRNA modified sequence, Human, SEQ ID No. 113; guide sequence of CR003385 (nucleic acid)
guide: mC*mC*mC*rCrUrArCrUrCrCrUrArUrUrCrCrArCrCrArGrUrUrUrUrArGrAmGmCmUmAmGmAmAmAmUmAmGmCrArArGrUrUrArArArArUrArArGrGrCrUrArGrUrCrCrGrUrUrArUrCrAmAmCmUmUmGmAmAmAmAmAmGmUmGmGmCmAmCmCmGmAmGmUmCmGmGmUmGmCmU*mU*mU*mU
As for B6, the “# Sites (off-target integration sites detected)” value was 15 and the “# Sites in HekCas9 cells (Example 5)” value amounted to 15.

B7: G000501: TTR sgRNA modified sequence, Human, SEQ ID No. 108; guide sequence of CR005300 (nucleic acid)
guide: mU*mC*mA*rCrArGrArArArCrArCrUrCrArCrCrGrUrArGrUrUrUrUrArGrAmGmCmUmAmGmAmAmAmUmAmGmCrArArGrUrUrArArArArUrArArGrGrCrUrArGrUrCrCrGrUrUrArUrCrAmAmCmUmUmGmAmAmAmAmAmGmUmGmGmCmAmCmCmGmAmGmUmCmGmGmUmGmCmU*mU*mU*mU
On to B7, for which the “# Sites (off-target integration sites detected)” value is recorded as 4 and the “# Sites in HekCas9 cells (Example 5)” value is recorded as 4.

B8: G000490: TTR sgRNA modified sequence, Human, SEQ ID No. 97; guide sequence of CR003366 (nucleic acid)
guide: mA*mA*mA*rUrArGrArCrArCrCrArArArUrCrUrUrArCrGrUrUrUrUrArGrAmGmCmUmAmGmAmAmAmUmAmGmCrArArGrUrUrArArArArUrArArGrGrCrUrArGrUrCrCrGrUrUrArUrCrAmAmCmUmUmGmAmAmAmAmAmGmUmGmGmCmAmCmCmGmAmGmUmCmGmGmUmGmCmU*mU*mU*mU
In the case of B8, the “# Sites (off-target integration sites detected)” value is reported as 12 and the “# Sites in HekCas9 cells (Example 5)” value is 12.

B9: G000484: TTR sgRNA modified sequence, Human, SEQ ID No. 91; guide sequence of CR003367 (nucleic acid)
guide: mA*mG*mA*rCrArCrCrArArArUrCrUrUrArCrUrGrGrArGrUrUrUrUrArGrAmGmCmUmAmGmAmAmAmUmAmGmCrArArGrUrUrArArArArUrArArGrGrCrUrArGrUrCrCrGrUrUrArUrCrAmAmCmUmUmGmAmAmAmAmAmGmUmGmGmCmAmCmCmGmAmGmUmCmGmGmUmGmCmU*mU*mU*mU
For the molecule B9, the “# Sites (off-target integration sites detected)” value stood at 7 and the “# Sites in HekCas9 cells (Example 5)” value amounted to 7.

B10: G000493: TTR sgRNA modified sequence, Human, SEQ ID No. 100; guide sequence of CR003368 (nucleic acid)
guide: mA*mA*mG*rUrGrCrCrUrUrCrCrArGrUrArArGrArUrUrGrUrUrUrUrArGrAmGmCmUmAmGmAmAmAmUmAmGmCrArArGrUrUrArArArArUrArArGrGrCrUrArGrUrCrCrGrUrUrArUrCrAmAmCmUmUmGmAmAmAmAmAmGmUmGmGmCmAmCmCmGmAmGmUmCmGmGmUmGmCmU*mU*mU*mU
Regarding B10, the “# Sites (off-target integration sites detected)” value worked out at 7 and the “# Sites in HekCas9 cells (Example 5)” value amounted to 7.

B11: G000492: TTR sgRNA modified sequence, Human, SEQ ID No. 99; guide sequence of CR003342 (nucleic acid)
guide: mC*mU*mU*rCrUrCrUrArCrArCrCrCrArGrGrGrCrArCrGrUrUrUrUrArGrAmGmCmUmAmGmAmAmAmUmAmGmCrArArGrUrUrArArArArUrArArGrGrCrUrArGrUrCrCrGrUrUrArUrCrAmAmCmUmUmGmAmAmAmAmAmGmUmGmGmCmAmCmCmGmAmGmUmCmGmGmUmGmCmU*mU*mU*mU
Turning to B11, the “# Sites (off-target integration sites detected)” value was 97 and the “# Sites in HekCas9 cells (Example 5)” value amounted to 97.

B12: G000497: TTR sgRNA modified sequence, Human, SEQ ID No. 104; guide sequence of CR003335 (nucleic acid)
guide: mC*mU*mG*rCrUrCrCrUrCrCrUrCrUrGrCrCrUrUrGrCrGrUrUrUrUrArGrAmGmCmUmAmGmAmAmAmUmAmGmCrArArGrUrUrArArArArUrArArGrGrCrUrArGrUrCrCrGrUrUrArUrCrAmAmCmUmUmGmAmAmAmAmAmGmUmGmGmCmAmCmCmGmAmGmUmCmGmGmUmGmCmU*mU*mU*mU
Turning to B12, the “# Sites (off-target integration sites detected)” value stood at 26 and the “# Sites in HekCas9 cells (Example 5)” value turned out to be 26.

B13: G000498: TTR sgRNA modified sequence, Human, SEQ ID No. 105; guide sequence of CR003359 (nucleic acid)
guide: mA*mG*mU*rGrArGrUrCrUrGrGrArGrArGrCrUrGrCrArGrUrUrUrUrArGrAmGmCmUmAmGmAmAmAmUmAmGmCrArArGrUrUrArArArArUrArArGrGrCrUrArGrUrCrCrGrUrUrArUrCrAmAmCmUmUmGmAmAmAmAmAmGmUmGmGmCmAmCmCmGmAmGmUmCmGmGmUmGmCmU*mU*mU*mU
Regarding B13, the “# Sites (off-target integration sites detected)” value turned out to be 82 and the “# Sites in HekCas9 cells (Example 5)” value was found to be 82.

B14: G000570: TTR sgRNA modified sequence, Human, SEQ ID No. 111; guide sequence of CR003347 (nucleic acid)
guide: mC*mA*mU*rUrGrArUrGrGrCrArGrGrArCrUrGrCrCrUrGrUrUrUrUrArGrAmGmCmUmAmGmAmAmAmUmAmGmCrArArGrUrUrArArArArUrArArGrGrCrUrArGrUrCrCrGrUrUrArUrCrAmAmCmUmUmGmAmAmAmAmAmGmUmGmGmCmAmCmCmGmAmGmUmCmGmGmUmGmCmU*mU*mU*mU
For the molecule B14, the “# Sites (off-target integration sites detected)” value is listed as 19 and the “# Sites in HekCas9 cells (Example 5)” value came out at 19.

B15: G000491: TTR sgRNA modified sequence, Human, SEQ ID No. 98; guide sequence of CR003338 (nucleic acid)
guide: mA*mU*mA*rCrCrArGrUrCrCrArGrCrArArGrGrCrArGrGrUrUrUrUrArGrAmGmCmUmAmGmAmAmAmUmAmGmCrArArGrUrUrArArArArUrArArGrGrCrUrArGrUrCrCrGrUrUrArUrCrAmAmCmUmUmGmAmAmAmAmAmGmUmGmGmCmAmCmCmGmAmGmUmCmGmGmUmGmCmU*mU*mU*mU
As to B15, the “# Sites (off-target integration sites detected)” value is reported as 28 and the “# Sites in HekCas9 cells (Example 5)” value was 28.

B16: G000496: TTR sgRNA modified sequence, Human, SEQ ID No. 103; guide sequence of CR005304 (nucleic acid)
guide: mG*mG*mC*rCrGrUrGrCrArUrGrUrGrUrUrCrArGrArArGrUrUrUrUrArGrAmGmCmUmAmGmAmAmAmUmAmGmCrArArGrUrUrArArArArUrArArGrGrCrUrArGrUrCrCrGrUrUrArUrCrAmAmCmUmUmGmAmAmAmAmAmGmUmGmGmCmAmCmCmGmAmGmUmCmGmGmUmGmCmU*mU*mU*mU
As to B16, the “# Sites (off-target integration sites detected)” value stood at 1 and the “# Sites in HekCas9 cells (Example 5)” value is on record as 1.

B17: G000500: TTR sgRNA modified sequence, Human, SEQ ID No. 107; guide sequence of CR003337 (nucleic acid)
guide: mC*mC*mA*rGrUrCrCrArGrCrArArGrGrCrArGrArGrGrGrUrUrUrUrArGrAmGmCmUmAmGmAmAmAmUmAmGmCrArArGrUrUrArArArArUrArArGrGrCrUrArGrUrCrCrGrUrUrArUrCrAmAmCmUmUmGmAmAmAmAmAmGmUmGmGmCmAmCmCmGmAmGmUmCmGmGmUmGmCmU*mU*mU*mU
In the case of B17, the “# Sites (off-target integration sites detected)” value is given as 46 and the “# Sites in HekCas9 cells (Example 5)” value is given as 46.

B18: G000487: TTR sgRNA modified sequence, Human, SEQ ID No. 94; guide sequence of CR003357 (nucleic acid)
guide: mU*mU*mC*rUrUrUrGrGrCrArArCrUrUrArCrCrCrArGrGrUrUrUrUrArGrAmGmCmUmAmGmAmAmAmUmAmGmCrArArGrUrUrArArArArUrArArGrGrCrUrArGrUrCrCrGrUrUrArUrCrAmAmCmUmUmGmAmAmAmAmAmGmUmGmGmCmAmCmCmGmAmGmUmCmGmGmUmGmCmU*mU*mU*mU
With B18, the “# Sites (off-target integration sites detected)” value amounted to 14 and the “# Sites in HekCas9 cells (Example 5)” value is given as 14.
